The values below come from PMC2174006 (The Journal of Cell Biology, 2002).

No end group written: not given here.

This assay deals with recombinant murine [32P]RIIα (murine, UniProt P12367 1-401, 32P-labelled). As to the kind of experiment: peptide or protein array.
Sequence of recombinant murine [32P]RIIα (P12367 whole entry): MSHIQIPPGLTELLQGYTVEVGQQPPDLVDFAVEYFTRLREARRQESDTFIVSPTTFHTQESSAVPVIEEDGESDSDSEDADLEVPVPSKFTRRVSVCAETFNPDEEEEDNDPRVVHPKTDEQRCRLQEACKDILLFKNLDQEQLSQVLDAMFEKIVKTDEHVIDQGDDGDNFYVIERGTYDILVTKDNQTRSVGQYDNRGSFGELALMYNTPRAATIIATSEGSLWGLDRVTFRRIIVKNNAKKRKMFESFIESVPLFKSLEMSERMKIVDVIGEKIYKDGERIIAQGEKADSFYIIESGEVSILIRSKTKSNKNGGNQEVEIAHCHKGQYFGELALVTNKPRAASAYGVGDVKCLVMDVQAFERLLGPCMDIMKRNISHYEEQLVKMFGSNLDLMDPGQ

B1: Rab32 peptide 178–197 (peptide)
peptide: Ac-NINIEEAARFLVEKILVNHQ
As to B1, the binding result was “binds”.
